Values quoted from earlier work, collected in patent US7951914B2, “Genetically modified cyclic-nucleotide controlled ion channels” (Forschungszentrum Julich GmbH, priority 2001, dated 2011).

Target: T1, CNG channels comprising the α3 subunits from the epithelium of the nose (Bos taurus, UniProt Q03041)
T1 sequence (Q03041 1-663): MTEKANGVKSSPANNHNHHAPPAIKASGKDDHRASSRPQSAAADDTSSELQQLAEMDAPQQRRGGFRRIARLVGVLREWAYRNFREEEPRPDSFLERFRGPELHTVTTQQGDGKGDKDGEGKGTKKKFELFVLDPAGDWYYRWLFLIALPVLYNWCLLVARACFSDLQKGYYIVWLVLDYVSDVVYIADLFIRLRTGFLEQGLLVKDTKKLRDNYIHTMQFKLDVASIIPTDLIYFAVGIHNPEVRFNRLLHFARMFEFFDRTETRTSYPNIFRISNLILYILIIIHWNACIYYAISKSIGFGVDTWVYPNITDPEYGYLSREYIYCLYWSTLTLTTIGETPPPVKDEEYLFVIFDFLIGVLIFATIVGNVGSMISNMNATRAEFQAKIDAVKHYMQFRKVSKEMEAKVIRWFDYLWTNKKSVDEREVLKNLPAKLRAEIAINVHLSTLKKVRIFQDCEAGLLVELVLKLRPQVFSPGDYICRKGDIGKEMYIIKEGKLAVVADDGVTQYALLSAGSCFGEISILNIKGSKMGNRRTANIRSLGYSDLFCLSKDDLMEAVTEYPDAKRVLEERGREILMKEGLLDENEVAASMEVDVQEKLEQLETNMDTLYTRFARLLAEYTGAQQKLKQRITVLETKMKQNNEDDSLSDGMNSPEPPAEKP
Conditions: Dhallan 1990; Ludwig 1990; cited from earlier work

B1: CNG channels comprising the α3 subunits: prior-art CNG channels of α3 subunits from the epithelium of the nose (protein, UniProt Q16280 1-664, looked up)
Cyclic nucleotide-gated …: MTEKTNGVKSSPANNHNHHAPPAIKANGKDDHRTSSRPHSAADDDTSSELQRLADVDAPQQGRSGFRRIVRLVGIIREWANKNFREEEPRPDSFLERFRGPELQTVTTQEGDGKGDKDGEDKGTKKKFELFVLDPAGDWYYCWLFVIAMPVLYNWCLLVARACFSDLQKGYYLVWLVLDYVSDVVYIADLFIRLRTGFLEQGLLVKDTKKLRDNYIHTLQFKLDVASIIPTDLIYFAVDIHSPEVRFNRLLHFARMFEFFDRTETRTNYPNIFRISNLVLYILVIIHWNACIYYAISKSIGFGVDTWVYPNITDPEYGYLAREYIYCLYWSTLTLTTIGETPPPVKDEEYLFVIFDFLIGVLIFATIVGNVGSMISNMNATRAEFQAKIDAVKHYMQFRKVSKGMEAKVIRWFDYLWTNKKTVDEREILKNLPAKLRAEIAINVHLSTLKKVRIFHDCEAGLLVELVLKLRPQVFSPGDYICRKGDIGKEMYIIKEGKLAVVADDGVTQYALLSAGSCFGEISILNIKGSKMGNRRTANIRSLGYSDLFCLSKDDLMEAVTEYPDAKKVLEERGREILMKEGLLDENEVATSMEVDVQEKLGQLETNMETLYTRFGRLLAEYTGAQQKLKQRITVLETKMKQNNEDDYLSDGMNSPELAAADEP
cGMP concentration that activates the channels: 2 µM
